# Tested on: Escherichia coli TOP10
# Experiment: shrunken log2 fold change of peptide-encoding DNA abundance (4.5 h post-induction vs induction); higher = less antimicrobial activity (less host growth inhibition)
# Conditions: time post-induction: 4.5 h; library: site-saturation at positions 5, 18, 19, 20
# 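Further: peptides expressed intracellularly from a pBAD plasmid library in pooled LB shake-flask culture, induced with 0.3% L-arabinose, DNA abundance read by NGS, three biological replicates, DESeq2 with apeglm shrinkage.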
row,Sequence,shrunken log2 fold change
1,RRIRNRPPRLPRPRPRPQKPPRP,0.0646
2,RRIRMRPPRLPRPRPRPFGFPRP,-0.0868
3,RRIRHRPPRLPRPRPRPEGYPRP,-0.124
4,RRIRLRPPRLPRPRPRPPDFPRP,-0.0501
5,RRIRVRPPRLPRPRPRPMFCPRP,-0.0375
6,RRIRSRPPRLPRPRPRPLITPRP,-0.012
7,RRIRARPPRLPRPRPRPSKIPRP,-0.265
8,RRIRNRPPRLPRPRPRPPWCPRP,0.108
9,RRIRERPPRLPRPRPRPEDAPRP,-0.079
10,RRIRVRPPRLPRPRPRPFNCPRP,-0.0327
11,RRIRVRPPRLPRPRPRPNLKPRP,-0.0252
12,RRIRDRPPRLPRPRPRPNCFPRP,0.156
13,RRIRFRPPRLPRPRPRPTTVPRP,-0.132
14,RRIRGRPPRLPRPRPRPNALPRP,0.474
15,RRIRIRPPRLPRPRPRPGIQPRP,-0.0834
16,RRIRPRPPRLPRPRPRPFIDPRP,-0.304
17,RRIRARPPRLPRPRPRPHWQPRP,0.124
18,RRIRRRPPRLPRPRPRPEVTPRP,0.0976
19,RRIRLRPPRLPRPRPRPHLGPRP,-0.105
20,RRIRLRPPRLPRPRPRPWQAPRP,0.226
21,RRIRARPPRLPRPRPRPIFHPRP,0.183
22,RRIRRRPPRLPRPRPRPRNLPRP,-0.0397
23,RRIRERPPRLPRPRPRPSEDPRP,-0.0724
24,RRIRKRPPRLPRPRPRPPATPRP,0.773
25,RRIRQRPPRLPRPRPRPRNDPRP,-0.485

row,Sequence,shrunken log2 fold change
1,RRIRGRPPRLPRPRPRPQWLPRP,0.136
2,RRIRLRPPRLPRPRPRPTMPPRP,-0.0783
3,RRIRNRPPRLPRPRPRPGNAPRP,0.0258
4,RRIRMRPPRLPRPRPRPAHKPRP,0.534
5,RRIRMRPPRLPRPRPRPDKIPRP,0.179
6,RRIRWRPPRLPRPRPRPERFPRP,-0.0212
7,RRIRVRPPRLPRPRPRPIVEPRP,-0.0668
8,RRIRHRPPRLPRPRPRPCQAPRP,-0.119
9,RRIRPRPPRLPRPRPRPPFMPRP,0.315
10,RRIRRRPPRLPRPRPRPLMSPRP,-0.246
11,RRIRDRPPRLPRPRPRPMKIPRP,-0.0804
12,RRIRYRPPRLPRPRPRPNNCPRP,-0.0707
13,RRIRWRPPRLPRPRPRPEFWPRP,0.6
14,RRIRVRPPRLPRPRPRPLMVPRP,-0.443
15,RRIRIRPPRLPRPRPRPHNTPRP,-0.961
16,RRIRLRPPRLPRPRPRPCTHPRP,-0.0381
17,RRIRPRPPRLPRPRPRPNHEPRP,-0.419
18,RRIRVRPPRLPRPRPRPQFRPRP,-1.21
19,RRIRRRPPRLPRPRPRPLKNPRP,0.29
20,RRIRWRPPRLPRPRPRPMHEPRP,-0.0461
21,RRIRARPPRLPRPRPRPDTWPRP,1.13
22,RRIRHRPPRLPRPRPRPGLIPRP,-0.234
23,RRIRNRPPRLPRPRPRPHHVPRP,-0.0011
24,RRIRYRPPRLPRPRPRPRRFPRP,0.256
25,RRIRPRPPRLPRPRPRPGGWPRP,0.724

row,Sequence,shrunken log2 fold change
1,RRIRERPPRLPRPRPRPQNLPRP,-0.375
2,RRIRVRPPRLPRPRPRPWSGPRP,-0.507
3,RRIRWRPPRLPRPRPRPPWMPRP,0.371
4,RRIRNRPPRLPRPRPRPWIHPRP,0.0731
5,RRIRFRPPRLPRPRPRPAYEPRP,0.0737
6,RRIRPRPPRLPRPRPRPTHSPRP,0.185
7,RRIRPRPPRLPRPRPRPNWYPRP,-0.338
8,RRIRYRPPRLPRPRPRPFIIPRP,-1.23
9,RRIRIRPPRLPRPRPRPLEEPRP,0.073
10,RRIRPRPPRLPRPRPRPVGHPRP,0.0338
11,RRIRMRPPRLPRPRPRPIYFPRP,-0.141
12,RRIRARPPRLPRPRPRPYYPPRP,-0.349
13,RRIRWRPPRLPRPRPRPPSQPRP,0.452
14,RRIRQRPPRLPRPRPRPKSRPRP,0.0336
15,RRIRVRPPRLPRPRPRPEGYPRP,-0.0123
16,RRIRCRPPRLPRPRPRPRYVPRP,-0.22
17,RRIRFRPPRLPRPRPRPMQKPRP,0.00713
18,RRIRFRPPRLPRPRPRPAPDPRP,0.323
19,RRIRVRPPRLPRPRPRPIGHPRP,-0.426
20,RRIRDRPPRLPRPRPRPFAIPRP,-0.0496
21,RRIRERPPRLPRPRPRPMCDPRP,-0.212
22,RRIRVRPPRLPRPRPRPDHYPRP,-0.149
23,RRIRARPPRLPRPRPRPQNAPRP,0.243
24,RRIRCRPPRLPRPRPRPRLVPRP,0.0587
25,RRIRARPPRLPRPRPRPQMSPRP,0.0835

row,Sequence,shrunken log2 fold change
1,RRIRIRPPRLPRPRPRPIMFPRP,-0.314
2,RRIRQRPPRLPRPRPRPDTMPRP,0.0515
3,RRIRYRPPRLPRPRPRPYSQPRP,-0.505
4,RRIRIRPPRLPRPRPRPFQIPRP,0.0698
5,RRIRLRPPRLPRPRPRPHWWPRP,0.148
6,RRIRGRPPRLPRPRPRPARHPRP,0.664
7,RRIRIRPPRLPRPRPRPGEWPRP,-0.01
8,RRIRSRPPRLPRPRPRPFVAPRP,-0.0664
9,RRIRSRPPRLPRPRPRPKQGPRP,0.245
10,RRIRPRPPRLPRPRPRPCRYPRP,0.0858
11,RRIRFRPPRLPRPRPRPKWAPRP,-0.075
12,RRIRWRPPRLPRPRPRPHQFPRP,-0.843
13,RRIRWRPPRLPRPRPRPAPPPRP,0.579
14,RRIRCRPPRLPRPRPRPNVEPRP,-0.216
15,RRIRIRPPRLPRPRPRPYKPPRP,-0.0367
16,RRIRARPPRLPRPRPRPITAPRP,0.232
17,RRIRCRPPRLPRPRPRPRNYPRP,-0.094
18,RRIRSRPPRLPRPRPRPMTSPRP,-0.0553
19,RRIRYRPPRLPRPRPRPNHWPRP,-0.4
20,RRIRFRPPRLPRPRPRPVVWPRP,0.408
21,RRIRDRPPRLPRPRPRPMSQPRP,-0.236
22,RRIRDRPPRLPRPRPRPMMFPRP,0.43
23,RRIRSRPPRLPRPRPRPNSSPRP,-0.31
24,RRIRIRPPRLPRPRPRPYINPRP,-1.08
25,RRIRMRPPRLPRPRPRPDQHPRP,0.237

row,Sequence,shrunken log2 fold change
1,RRIRARPPRLPRPRPRPPNVPRP,0.109
2,RRIRSRPPRLPRPRPRPGWLPRP,0.177
3,RRIRYRPPRLPRPRPRPGKNPRP,-0.13
4,RRIRLRPPRLPRPRPRPYMFPRP,-0.123
5,RRIRNRPPRLPRPRPRPGFNPRP,-0.207
6,RRIRGRPPRLPRPRPRPYGQPRP,0.0682
7,RRIRCRPPRLPRPRPRPHSQPRP,-0.0293
8,RRIRSRPPRLPRPRPRPKPNPRP,0.217
9,RRIRMRPPRLPRPRPRPRCWPRP,0.666
10,RRIRIRPPRLPRPRPRPLMRPRP,0.466
11,RRIRERPPRLPRPRPRPCASPRP,-0.172
12,RRIRSRPPRLPRPRPRPQTIPRP,-0.502
13,RRIRIRPPRLPRPRPRPEGEPRP,0.134
14,RRIRARPPRLPRPRPRPAKMPRP,0.463
15,RRIRSRPPRLPRPRPRPHTCPRP,-0.215
16,RRIRLRPPRLPRPRPRPDPTPRP,0.0311
17,RRIRHRPPRLPRPRPRPEYQPRP,-0.3
18,RRIRRRPPRLPRPRPRPIFDPRP,0.369
19,RRIRLRPPRLPRPRPRPNPHPRP,-0.07
20,RRIRWRPPRLPRPRPRPCMGPRP,-0.0956
21,RRIRGRPPRLPRPRPRPSHEPRP,-0.418
22,RRIRHRPPRLPRPRPRPVQIPRP,-0.0126
23,RRIRVRPPRLPRPRPRPCQIPRP,-0.34
24,RRIRDRPPRLPRPRPRPVFYPRP,-0.301
25,RRIRPRPPRLPRPRPRPYECPRP,0.0143

row,Sequence,shrunken log2 fold change
1,RRIRPRPPRLPRPRPRPKAKPRP,0.131
2,RRIRYRPPRLPRPRPRPQENPRP,-0.00441
3,RRIRRRPPRLPRPRPRPAIMPRP,0.275
4,RRIRPRPPRLPRPRPRPYGDPRP,-0.156
5,RRIRVRPPRLPRPRPRPVVIPRP,-0.401
6,RRIRNRPPRLPRPRPRPGGCPRP,0.203
7,RRIRNRPPRLPRPRPRPDDNPRP,-0.0156
8,RRIRARPPRLPRPRPRPLPDPRP,1.07
9,RRIRHRPPRLPRPRPRPLRFPRP,-0.172
10,RRIRVRPPRLPRPRPRPKRIPRP,-0.114
11,RRIRERPPRLPRPRPRPSSMPRP,-0.284
12,RRIRCRPPRLPRPRPRPFYRPRP,-0.313
13,RRIRSRPPRLPRPRPRPKQNPRP,0.0535
14,RRIRTRPPRLPRPRPRPPSHPRP,-0.143
15,RRIRTRPPRLPRPRPRPCRDPRP,-0.118
16,RRIRARPPRLPRPRPRPVGHPRP,0.189
17,RRIRWRPPRLPRPRPRPPMRPRP,1.18
18,RRIRGRPPRLPRPRPRPEPRPRP,1.35
19,RRIRPRPPRLPRPRPRPINYPRP,-0.402
20,RRIRCRPPRLPRPRPRPDLAPRP,0.102
21,RRIRERPPRLPRPRPRPPDKPRP,0.0845
22,RRIRFRPPRLPRPRPRPLKTPRP,-0.112
23,RRIRPRPPRLPRPRPRPDLIPRP,-0.036
24,RRIRIRPPRLPRPRPRPFKQPRP,-0.246
25,RRIRFRPPRLPRPRPRPKQVPRP,-0.176

# Source: the supplement of paper PMC9112550, “Optimization of the antimicrobial peptide Bac7 by deep mutational scanning” (BMC Biology, 2022)
